Reference: PMC4110038, “The CD27L and CTP1L Endolysins Targeting Clostridia Contain a Built-in Trigger and Release Factor” (PLoS Pathogens, 2014)
Where a chain is given by its changes, count along the chain named. Numbers in names are those of the source.

B1: CD27L endolysin C238R mutant, full length (enzyme, bacteriophage ΦCD27, UniProt B6SBV8 1-270, looked up)
chain: MKICITVGHSILKSGACTSADGVVNEYQYNKSLAPVLADTFRKEGHKVDVIICPEKQFKTKNEEKSYKIPRVNSGGYDLLIELHLNASNGQGKGSEVLYYSNKGLEYATRICDKLGTVFKNRGAKLDKRLYILNSSKPTAVLIESFFCDNKEDYDKAKKLGHEGIAKLIVEGVLNKNINNEGVKQMYKHTIVYDGEVDKISATVVGWGYNDGKILICDIKDYVPGQTQNLYVVGGGAREKISSITKEKFIMIKGNDRFDTLYKALDFINR
notes: CD27L endolysin of bacteriophage ΦCD27, made by site-directed mutagenesis of pET15b-cd27l; Side-by-side dimer interface mutant; also called CD27L (C238R); CD27L C239R (as printed in the SEC-RALS methods); source: E. coli BL21(DE3), purified as wild-type CD27L (Ni-NTA, SEC); not shown: His tag, N-terminal, kept
B2: CD27L endolysin, full length, wild type (enzyme, bacteriophage ΦCD27, UniProt B6SBV8 1-270, looked up)
chain: B1 chain with R238C
notes: CD27L endolysin of bacteriophage ΦCD27 (N-acetylmuramoyl-L-alanine amidase domain, linker, C-terminal domain); 270 residues by the construct name CD27L180-270; in pET15b with an N-terminal His tag and a thrombin site; Undergoes continuous autocleavage at M186, so samples also hold the catalytic domain and the C-terminal fragment; also called CD27L (wild-type); recombinant CD27L endolysin; source: …
B3: CD27L endolysin M186P mutant, full length (enzyme, bacteriophage ΦCD27, UniProt B6SBV8 1-270, looked up)
chain: B1 chain with M186P, R238C
notes: CD27L endolysin of bacteriophage ΦCD27, made by site-directed mutagenesis of pET15b-cd27l; Cleavage-site mutant; autocleavage abolished; tends to aggregate; also called CD27L M186P; source: E. coli BL21(DE3), purified as wild-type CD27L (Ni-NTA, SEC)
B4: Proteolytic fragment of CD27L (C-terminal domain released by autocleavage at M186) (domain or fragment, bacteriophage ΦCD27, UniProt B6SBV8 186-270, looked up)
chain: MYKHTIVYDGEVDKISATVVGWGYNDGKILICDIKDYVPGQTQNLYVVGGGACEKISSITKEKFIMIKGNDRFDTLYKALDFINR
notes: CD27L endolysin of bacteriophage ΦCD27, autoproteolytic C-terminal fragment; N-terminal residue identified as M186 by LC-MS; the protein ends at 270 by the construct name CD27L180-270; About 10 kDa; The N-terminal His tag of the parent stays on the catalytic domain; also called CD27L proteolytic fragment; C-terminal domain of CD27L; source: autoproteolytic product of full-length CD27L made in E. …

Columns and labels:
[1] = molecular target: CTP1L endolysin, full length, wild type (bacteriophage that targets C. tyrobutyricum (phage not named)); assay: SEC-RALS/RI/UV (size exclusion chromatography with right-angle light scattering); S75 10/300 GL column, 20 mM HEPES pH 7.4, 500 mM NaCl, room temperature, 75 µL injected at 6.37, 7.15 and 6.17 mg/mL, 0.4 mL/min
[2] = molecular target: the molecule itself; assay: SAXS; CD27L C238R, 10°C, 20 mM Tris, 500 mM NaCl pH 7.4, 1.0-8.5 mg/mL; volume fractions by OLIGOMER on merged data
[3] = molecular target: the molecule itself; assay: SEC-RALS/RI/UV (size exclusion chromatography with right-angle light scattering); S75 10/300 GL column, 20 mM HEPES pH 7.4, 500 mM NaCl, room temperature, 75 µL injected at 6.37, 7.15 and 6.17 mg/mL, 0.4 mL/min
[4] = molecular target: B2; assay: as above; conditions: both partners purified
[5] = molecular target: the molecule itself; assay: crystal structure; crystals grown from full-length CD27L that held only the proteolytic C-terminal fragment; six copies in the asymmetric unit; 10-20% PEG 4000, 20 mM Tris pH 8.0; space group P212121

CTP1L endolysin, full length, wild type (enzyme)
stoichiometry N [1]: 2

B1
stoichiometry N [2]: 2

B2
stoichiometry N [3]: 2

B3
stoichiometry N [3]: 2

B4
binding result [4]: binds
binding result [5]: binds
